In US20200054736A1:

Experiments:
[1] = biological target: Fab of the meditope-Fab interaction (not specified); test: estimated; method not stated
[2] = biological target: original trastuzumab meFab; test: Kinexa experiments, 25° C. (data not shown)
[3] = biological target: meHER2-CAR, orientation Lc-Hc28ζ (meditope-enabled trastuzumab Fab-CAR); test: flow cytometry of meHer2 (Lc-Hc28ζ) T cells pre-bound to meditope peptide and stained with protein L. Untransduced control, same quadrant: 0.50%.
[4] = biological target: meHER2-CAR, orientation Hc28ζ-Lc (meditope-enabled trastuzumab Fab-CAR); test: flow cytometry of meHer2 (Hc28 ζ-Lc) T cells pre-bound to meditope peptide and stained with protein L. Untransduced control, same quadrant: 0.50%.
[5] = biological target: meHER2-CAR, orientation Lc-Hc28ζ (meditope-enabled trastuzumab Fab-CAR); test: flow cytometry of lentivirally transduced primary human T cells stained with Meditope-AF647, top trace meHer2 (Lc-Hc28ζ). Untransduced control on the sheet: 1.83% MFI:1306.
[6] = biological target: meHER2-CAR, orientation Hc28ζ-Lc (meditope-enabled trastuzumab Fab-CAR); test: flow cytometry of lentivirally transduced primary human T cells stained with Meditope-AF647, middle trace meHer2 (Hc28 ζ-Lc). Untransduced control on the sheet: 1.83% MFI:1306.
[7] = biological target: meHER2-CAR, orientation Lc-Hc28ζ (meditope-enabled trastuzumab Fab-CAR); test: flow cytometry of meHer2 (Lc-Hc28ζ) T cells pre-bound to meditope peptide and stained with protein L. Untransduced control, same quadrant: 0.63%.
[8] = biological target: meHER2-CAR, orientation Lc-Hc28ζ (meditope-enabled trastuzumab Fab-CAR); test: flow cytometry of meHer2 (Lc-Hc28ζ) T cells pre-bound to meditope peptide and stained with protein L. Untransduced control, same quadrant: 7.23%.
[9] = biological target: meHER2-CAR, orientation Hc28ζ-Lc (meditope-enabled trastuzumab Fab-CAR); test: flow cytometry of meHer2 (Hc28 ζ-Lc) T cells pre-bound to meditope peptide and stained with protein L. Untransduced control, same quadrant: 0.63%.
[10] = biological target: meHER2-CAR, orientation Hc28ζ-Lc (meditope-enabled trastuzumab Fab-CAR); test: flow cytometry of meHer2 (Hc28 ζ-Lc) T cells pre-bound to meditope peptide and stained with protein L. Untransduced control, same quadrant: 7.23%.
[11] = biological target: meHER2-CAR, orientation Hc28ζ-Lc (meditope-enabled trastuzumab Fab-CAR); test: flow cytometry of lentivirally transduced primary human T cells stained with protein L, middle trace meHer2 (Hc28 ζ-Lc). Untransduced control on the sheet: 13.16% MFI:1418.

meditope-protein L fusion (MPL)
half-life of the complex [1]: > 80 days | Kd [2]: 0.014 nM | fold over the affinity of the individual components [2]: 87000 fold

Meditope-AF647 (peptide)
% cells Meditope+ Protein L- (upper left quadrant) [3]: 2.09% | % cells Meditope+ Protein L- (upper left quadrant) [4]: 2.6% | % positive cells (marker gate) [5]: 57.1% | % positive cells (marker gate) [6]: 54.4%

protein L
% cells Meditope+ Protein L+ (upper right quadrant) [7]: 43.1% | % cells Meditope- Protein L+ (lower right quadrant) [8]: 16.1% | % cells Meditope+ Protein L+ (upper right quadrant) [9]: 42.1% | % cells Meditope- Protein L+ (lower right quadrant) [10]: 4.04% | % positive cells (marker gate) [11]: 51.8%
